Experimental findings from paper PMC9813773, “LACC1 bridges NOS2 and polyamine metabolism in inflammatory macrophages” (Nature, 2022) are described below.

Substrate in data set [1]: NC(=O)NCCC[C@H](N)C(=O)O
Nature of the data set: L-Orn formation by LC-QQQ-MS, Michaelis-Menten. It is filed as biochemical, Mus musculus. To be noted: 5-500 μM L-Cit, PBS pH 7.4, 1 μM ZnSO4, 37°C.

Substrate in data set [2]: NC(=O)NCCC[C@H](N)C(=O)O
The data set can be described thus: L-Orn formation by LC-QQQ-MS, Michaelis-Menten. It is filed as biochemical, Homo sapiens. To be noted: 5-500 μM L-Cit, PBS pH 7.4, 1 μM ZnSO4, 37°C.

Changes are numbered by the printed parent chain. Names may count otherwise.

B1: mLACC1 (Mus musculus) (protein)
chain: MAEAVLIDLSGLQLNAQKNCHETLLETLDGIHYHHAPKAKFLCIICCRNASKEKDGEYGLCELEAGNGFSRLAGKFETVSHPCLAASLYTIKQKIDEENLSCIKVIVPEHRKLLMKAYVGQLFTEVYEFEFEDLQGAWRDSLLKPSTGINVTTTQELEDIQHEIETYLRSLPALKGDLTIVTSPLIPDNFLHGFTTRTGGISSVPTLSSLNLFSSSKRRDPKVVVQENVRRLANAAGFNAEKFYRIKTDHASEVWVMGKKEPESYDGIVTNQRGVTITALGADCIPIVFADPVKKACGVAHSGWKGTLLGVAMATVNAMIAEYGCDVEDIIVVLGPSVGSCCFTLPKESAVSFHSLHPSCVRHFDSPRPYVDIRKATRILLERGGILPQNIQDQKEDLDLCTSCHPEKFFSHVRDGLNFGTQIGFISLRE
notes: codon-optimized synthetic cDNA in pMAL-C5x (MBP fusion), E. coli BL21(DE3), amylose resin; tag cleavage not described
The term Km denotes the substrate concentration at which the rate is half of its maximum. As a reminder, the kcat is the maximal rate divided by the concentration of active sites. For B1, in data set [1], the Michaelis-Menten constant (Km) amounted to 117.2 µM and the kcat is 0.0055 s⁻¹.

B2: hLACC1 (Homo sapiens) (protein)
chain: MAEAVLIDLFGLKLNSQKNCHQTLLKTLNAVQYHHAAKAKFLCIMCCSNISYERDGEQDNCEIETSNGLSALLEEFEIVSCPSMAATLYTIKQKIDEKNLSSIKVIVPRHRKTLMKAFIDQLFTDVYNFEFEDLQVTFRGGLFKQSIEINVITAQELRGIQNEIETFLRSLPALRGKLTIITSSLIPDIFIHGFTTRTGGISYIPTLSSFNLFSSSKRRDPKVVVQENLRRLANAAGFNVEKFYRIKTHHSNDIWIMGRKEPDSYDGITTNQRGVTIAALGADCIPIVFADPVKKACGVAHAGWKGTLLGVAMATVNAMIAEYGCSLEDIVVVLGPSVGPCCFTLPRESAEAFHNLHPACVQLFDSPNPCIDIRKATRILLEQGGILPQNIQDQNQDLNLCTSCHPDKFFSHVRDGLNFGTQIGFISIKE
notes: as for B1
B2: in data set [2], the Km stood at 163.7 µM and the kcat is 0.00567 s⁻¹.

B3: hLACC1 (Homo sapiens; C284R) (protein)
chain: B2 chain with C284R
notes: as for B1
On to B3, for which, in data set [2], the Km was found to be 155.8 µM and the kcat was 0.00275 s⁻¹.

B4: hLACC1 (Homo sapiens; K38E) (protein)
chain: B2 chain with K38E
notes: as for B1
On to B4, for which, in data set [2], the Michaelis-Menten constant (Km) came to 81.58 µM and the kcat was determined as 0.0051 s⁻¹.

B5: hLACC1 (Homo sapiens; I254V) (protein)
chain: B2 chain with I254V
notes: as for B1
As to B5, in data set [2], the Km came out at 181.3 µM and the kcat turned out to be 0.00433 s⁻¹.
